Measured values: US20150064273A1, “Mesenchymal Stem Cells Conditioned Medium and Methods of Generating and Using the Same” (Gamida-Cell Ltd., priority 2012, published 2015)

B1: PDGF-BB: platelet derived growth factor, homodimer, subunit B (protein, UniProt P01127 82-190, looked up)
Platelet-derived growth …: SLGSLTIAEPAMIAECKTRTEVFEISRRLIDRTNANFLVWPPCVEVQRCSGCCNNRNVQCRPTQVQLRPVQVRKIEIVRKKPIFKKATVTLEDHLACKCETVAAARPVT
B2: HB-EGF: heparin-binding EGF-like growth factor (protein, UniProt Q99075 63-148, looked up)
Heparin-binding EGF-like …: DLQEADLDLLRVTLSSKPQALATPNKEEHGKRKKKGKGLGKKRDPCLRKYKDFCIHGECKYVKELRAPSCICHPGYHGERCHGLSL
B3: BMP-3: member of the transforming growth factor beta family, known to enhance bone differentiation (protein, UniProt P12645 363-472, looked up)
Bone morphogenetic protein 3: QWIEPRNCARRYLKVDFADIGWSEWIISPKSFDAYYCSGACQFPMPKSLKPSNHATIQSIVRAVGVVPGIPEPCCVPEKMSSLSILFFDENKNVVLKVYPNMTVESCACR

Columns and labels:
[1] = system: mesenchymal stem cells; assay: Mesenchymal stem cell culture with growth factors with or without nicotinamide, cell counts; assay type: cell-based; settings: growth factor 10 or 50 ng/ml with 5 mM NAM; three or four passages
Procedure: Isolation: Bone marrow derived and adipose tissue derived mesenchymal cells were isolated based on their plastic adherence potential in expansion medium containing: High glucose DMEM and 10% Fetal Bovine Serum (FBS, Hyclone, Logan, Utah, USA) supplemented with 0.05 mg/ml Gentamicin (Sigma) and 2 mM L-glutamine (Biological Industries, Israel). Cells were allowed to adhere for 3-4 days and non-adherent cells were washed out with medium changes. The medium was further exchanged with fresh medium every 3-4 days.
Maintenance and expansion: Once adherent cells reached approximately 80-90% confluency, they were detached with 0.25% trypsin-EDTA (Sigma), washed twice in DMEM and 10% Fetal Bovine Serum, with centrifugation, 400 g, 5 minutes, and re-plated at a 1:2 to 1:1000 dilution under the same culture conditions.
Measurement of number of cells in culture: Cell number was measured using Cedex Automated Cell Counter (Innovatis). The cells were diluted 1:2 in Trypan Blue (Sigma) and cell number was measured automatically under microscope.
Treatment of mesenchymal cultures with nicotinamide: Mesenchymal cultures were initiated as described above, and supplemented with nicotinamide 1-15 mM alone, or in combination with growth factors or growth factors alone, incubated at 37° C. in a humidified atmosphere of 5% CO2 in air. At each passage and at each medium exchange, the cultures were supplemented with mesenchymal medium, nicotinamide and growth factors.
Mesenchymal stem cells were selected and cultured in the presence of particular growth factors (basic fibroblast growth factor—bFGF, heparin binding epidermal growth factor—HB-EGF, fibroblast growth factor 4—FGF-4 and platelet derived growth factor, homodimer, subunit B, PDGF-BB) in the presence and absence of nicotinamide for three or four passages and the number and size of the cells was calculated.
Two concentrations (10 and 50 ng/ml) of each one of the following factors were examined.
In addition, the influence of the combination: 5 mM NAM+50 ng/ml FGF4+50 ng/ml PDGF-BB was examined in comparison to an individual supplement.

[2] = system: MSCs; settings: Tamama et al. 2010; cited from earlier work
[3] = system: mesenchymal stem cells; assay: Percent of MSC (CD105+CD45−) analyzed by FACS; assay type: cell-based; settings: FGF4 or PDGF-BB 50 ng/ml, NAM 5 mM
Procedure: Four different batches of MSC cultures were treated with FGF4 (50 ng/ml), NAM (5 mM) or a combination of FGF4+NAM. Percent of MSC (CD105+CD45−) was analyzed by FACS. FIGS. 7A-D are graphs illustrating that MSC cultures treated with PDGF-BB or a combination of PDGF-BB+NAM comprise a higher fraction of cells other than MSCs that contaminates the cultures as compared to MSC cultured in the absence of PDGF-BB. Four different batches of MSC cultures were treated with PDGF-BB (50 ng/ml), NAM (5 mM) or a combination of PDGF-BB+NAM. Percent of MSC (CD105+CD45−) was analyzed by FACS. Surface antigen analysis: At different time points the cells were detached with 0.25% trypsin-EDTA. […] The cells were then washed in the above buffer and analyzed using a FACScalibur® flow cytometer (Becton Dickinson). […] Emission of 10000 cells was measured using logarithmic amplification, and analyzed using the CellQuest software (Becton Dickinson). Cells stained with FITC- and PE-conjugated isotype control antibodies were used to determine background fluorescence.

[4] = system: MSC; settings: Stewart et al. 2010; cited from earlier work

| Molecule | effect on the ability of nicotinamide to increase proliferation of mesenchymal stem cells [1] | other results |
| --- | --- | --- |
| basic FGF: basic fibroblast growth factor (bFGF, FGF2) | negative effect |  |
| EGF: Epidermal growth factor |  | increase in number of colony-forming units [2]: 25% |
| B1 | inconsistent effect | Percent of MSC (CD105+CD45−) in culture [3]: contaminated with a higher fraction of cells other than MSCs |
| B2 | negative effect |  |
| B3 |  | increase in MSC proliferation [4]: threefold |
